The record followed here is patent US20110262447A1.

Usually Kd stands for the constant that tells how readily two partners part at equilibrium. Higher therefore signals a looser complex.

Experiment [1] deals with T1, FRHSVV peptide, the common epitope of mutant p53 (biotin conjugate) (human).
Experiment [2] addresses T1, FRHSVV peptide, the common epitope of …. Briefly: BIAcore SPR. A general note: SPR reads the build-up and loss of mass on a sensor chip optically.

Like-named read-outs stand apart in the source and are kept apart here.

B1: F2 scFv (scFv)
scFv: VQLLESGGGLVQPGGSLRLSCAASGFTFSGYWMHWVRQAPGKGLEWVSEISGSGDSTHYGDSVKGRFTISRDNSKNTLYLQMNSLRAEDTAVYYCARGRNGSLDYWGQGTLVTVSSGSAGGGGSGGGGSGGGGSDIVLTQPPSASGTPGQRVTISCSGTSSNIGADYDVHWYQQLPGKAPKLLIYDNNKRPSGVSDRFSGSKSGTSASLAISGLRSEDEADYYCAAWDSSLSSVVFGGGTQLTV
B1 showed a Kd in experiment [1] of 11 nM.

B2: A6 scFv (scFv)
scFv: VQLLESGGGLVQPGGSPRLSCAASGFTFSGYWMHWVRQAPGKGLEWVSEISGSGDSTHYGDSVKGRFTISRDNSKNTLYLQMNSLRAEDTAVYYCARGRNGSLDYWGQGTLVTVSSGSAGGGGSGGGGSGGGGSDIVLTQPPSASGTPGQRVTISCTGGRFNIGDYAVNWYQQLPGKAPKLLIYDNDRRPSGVSDRFSGSKSGTSASLAISGLRSEDEADYYCAAWDDSLDGLVFGGGTQLTV
As for B2, the equilibrium dissociation constant (Kd) in experiment [2] amounted to 23 nM.

B3: E6 scFv (scFv)
scFv: VQLLESGGGLVQPGGSLRLSCAASGFTFSGYWMHWVRQAPGKGLEWVSEISGSGDSTHYGDSVKGRFTISRDNSKNTLYLQMNSLRAEDTAVYYCARGRNGSLDYWGQGTLVTVSSGSAGGGGSGGGGSGGGGSDIVLTQPPSASGTPGQRVTISCSGSSSNIGAGYDVHWYQQLPGTAPKLLIYGNTNRPSGVSDRFSGSKSGTSASLAISGLRSEDEADYYCQSFDSTLSGPVFGGGTKVTV
As to B3, the dissociation constant (Kd) in experiment [1] is 4.6e-05 nM.
